The experiment concerns the target T1, GST-tagged PAK1 (Y270-H545) (human, UniProt Q13153-1 270-545).
T1 construct: human PAK1 C terminus with the entire kinase domain, residues Y270-H545; vector pGEX4T1; also called GST-PAK1; GST-PAK1 kinase domain; source: E. coli BL21, purified; not shown: GST, N-terminal, kept
Kind of experiment: ITC; 25 μM GST-PAK1 in the cell titrated with 100 μM sortilin-cd or peptide in 28 steps of 10 μl at 34°C; 100 mM NaCl, 50 mM Tris-HCl pH 7.5 (pH 7.4 in the results); one set of sites model. Conditions: both partners purified. For orientation: In ITC the heat of successive injections is recorded.

One may read the Kd as the free concentration of one partner at which half of the binding sites on the other are occupied at equilibrium, for simple one-to-one binding. Higher therefore signals weaker binding.

T1 sequence (Q13153 270-545): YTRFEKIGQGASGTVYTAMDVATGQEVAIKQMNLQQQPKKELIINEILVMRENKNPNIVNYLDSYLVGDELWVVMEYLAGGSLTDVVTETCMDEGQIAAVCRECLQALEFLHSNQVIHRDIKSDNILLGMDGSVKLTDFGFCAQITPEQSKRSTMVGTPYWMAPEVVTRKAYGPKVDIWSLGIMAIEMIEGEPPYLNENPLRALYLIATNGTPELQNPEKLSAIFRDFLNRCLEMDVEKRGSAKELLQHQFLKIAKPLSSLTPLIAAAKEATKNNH

B1: complete sortilin cytoplasmic domain (K779-E831), GST tag removed (domain or fragment, human, UniProt Q99523-1 779-831, looked up)
chain: KKYVCGGRFLVHRYSVLQQHAEANGVDGVDALDTASHTNKSGYHDDSDEDLLE
notes: human sortilin cytoplasmic domain K779-E831 (K1-E53 of the cytoplasmic domain); vector pGEX4T1; also called sortilin-cd; wt sortilin-cd; source: E. coli BL21, purified, GST tag removed by thrombin cleavage; not shown: GST, N-terminal, cleaved
B1 yielded a Kd of around 2000 nM.

The values are drawn from article PMC6965034, “PAK Kinases Target Sortilin and Modulate Its Sorting” (Molecular and Cellular Biology, 2019).
